Experiment [1] addresses N-terminal FLAG-tagged seipin A212P (human) (UniProt Q96G97). The experiment is described as follows: co-IP; HEK293 cells co-transfected, lysed 48 h later in ODG lysis buffer (50 mM n-octyl-β-D-glucopyranoside, 50 mM Tris pH 6.8, 150 mM NaCl, 1 mM EDTA); anti-FLAG-agarose beads 2 h at 4 °C, eluted with 3xFLAG peptide; immunoblot for FLAG and Myc. (In general: A western blot detects proteins with antibodies after separation by electrophoresis.)

For experiment [2], the target named is N-terminal FLAG-tagged seipin L91P (human) (UniProt Q96G97). Described as above.
Experiment [3] addresses Seipin-Myc, wild type (human) (UniProt Q96G97). The experiment is described as follows: atomic force microscopy; proteins co-isolated on anti-Myc beads from co-transfected tsA 201 cells, eluted and imaged in tapping mode in air; particle volumes and angles.
For experiment [4], the target named is T1, Myc-tagged human GPAT3 (GPAT3-Myc), Q53EU6.
T1 chain: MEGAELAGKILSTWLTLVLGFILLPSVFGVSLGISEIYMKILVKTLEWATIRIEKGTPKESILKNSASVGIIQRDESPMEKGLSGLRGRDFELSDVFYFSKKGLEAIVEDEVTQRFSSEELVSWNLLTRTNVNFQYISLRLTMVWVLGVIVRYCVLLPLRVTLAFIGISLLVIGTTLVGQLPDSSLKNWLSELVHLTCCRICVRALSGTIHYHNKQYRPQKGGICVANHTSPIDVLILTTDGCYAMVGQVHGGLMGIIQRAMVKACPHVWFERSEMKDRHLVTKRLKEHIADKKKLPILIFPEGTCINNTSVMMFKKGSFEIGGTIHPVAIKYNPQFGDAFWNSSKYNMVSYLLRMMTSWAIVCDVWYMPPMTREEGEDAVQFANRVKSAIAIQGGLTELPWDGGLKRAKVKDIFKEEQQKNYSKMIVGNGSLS
As to the kind of experiment: co-immunoprecipitation (anti-FLAG IP, immunoblot quantification). Conditions: chain shown with the change; HEK293 cells; n = 3; parent: est. 1.0; read off a plot.

B1: Myc-tagged human GPAT3 (GPAT3-Myc) (enzyme)
chain: T1 chain
For the molecule B1, the reduction of the co-immunoprecipitation against wild-type seipin in experiment [1] and in experiment [2] was 50% each time.

B2: FLAG-GPAT3 (enzyme)
chain: T1 chain
For B2, the percent of seipin particles decorated by two GPAT3 particles in experiment [3] is 10.4%.

B3: N-terminal FLAG-tagged wild-type seipin (WT), Q96G97 T78A (protein)
chain: MVNDPPVPALLWAQEVGQVLAGRARRLLLQFGVLFCTILLLLWVSVFLYGSFYYSYMPTVSHLSPVHFYYRTDCDSSATSLCSFPVANVSLTKGGRDRVLMYGQPYRVTLELELPESPVNQDLGMFLVTISCYTRGGRIISTSSRSVMLHYRSDLLQMLDTLVFSSLLLFGFAEQKQLLEVELYADYRENSYVPTTGAIIEIHSKRIQLYGAYLRIHAHFTGLRYLLYNFPMTCAFIGVASNFTFLSVIVLFSYMQWVWGGIWPRHRFSLQVNIRKRDNSRKEVQRRISAHQPGPEGQEESTPQSDVTEDGESPEDPSGTEGQLSEEEKPDQQPLSGEEELEPEASDGSGSWEDAALLTEANLPAPAPASASAPVLETLGSSEPAGGALRQRPTCSSS
For B3, the ratio to parent in experiment [4] worked out at 0.84 fold vs WT.
